In article PMC7804152, “Structural basis for the multi-activity factor Rad5 in replication stress tolerance”:

Experiments:
ScHIRAN = biological target: T1, ScHIRAN (Saccharomyces cerevisiae, UniProt P32849 171-375); assay: EMSA; no preference for free 3'-OH; FP: 20 mM Tris pH 7.5, 50 mM (dsDNA, KlHIRAN) or 70 mM (ssDNA) NaCl, 2 mM MgCl2, 1 nM DNA, room temp; EMSA: 20 mM Tris pH 7.5, 100 mM KCl, 0.5 mM DTT, 3% glycerol, 2 mM MgCl2, 250 ug/mL BSA, 4 C; pull-down: 20 mM Tris pH 7.5, 50 mM NaCl, 4 C; conditions: protein: recombinant; tags: intein-CBD cleaved off; label: 3'-FAM
T1 sequence: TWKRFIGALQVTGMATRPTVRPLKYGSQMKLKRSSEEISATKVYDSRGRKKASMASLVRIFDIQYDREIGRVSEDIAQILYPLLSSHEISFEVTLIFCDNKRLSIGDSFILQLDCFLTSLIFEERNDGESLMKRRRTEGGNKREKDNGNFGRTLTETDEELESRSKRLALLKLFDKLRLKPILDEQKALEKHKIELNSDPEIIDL

KlHIRAN = biological target: T2, KlHIRAN (Kluyveromyces lactis, UniProt Q6CJM4 174-341); assay: as above; conditions: protein: recombinant; tags: intein-CBD cleaved off; label: 3'-FAM
T2 sequence: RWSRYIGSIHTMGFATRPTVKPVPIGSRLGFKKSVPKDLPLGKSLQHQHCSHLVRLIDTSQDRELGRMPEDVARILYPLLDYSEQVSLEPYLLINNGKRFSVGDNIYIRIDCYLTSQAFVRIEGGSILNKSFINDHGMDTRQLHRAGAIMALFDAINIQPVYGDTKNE

ScRad5 [1] = biological target: T3, ScRad5 (Saccharomyces cerevisiae, UniProt P32849 1-1169); assay: pull-down; FP: 20 mM Tris pH 7.5, 50 mM (dsDNA, KlHIRAN) or 70 mM (ssDNA) NaCl, 2 mM MgCl2, 1 nM DNA, room temp; EMSA: 20 mM Tris pH 7.5, 100 mM KCl, 0.5 mM DTT, 3% glycerol, 2 mM MgCl2, 250 ug/mL BSA, 4 C; pull-down: 20 mM Tris pH 7.5, 50 mM NaCl, 4 C; conditions: protein: recombinant; tags: N-terminal FLAG; label: 5'-biotin
T3 sequence: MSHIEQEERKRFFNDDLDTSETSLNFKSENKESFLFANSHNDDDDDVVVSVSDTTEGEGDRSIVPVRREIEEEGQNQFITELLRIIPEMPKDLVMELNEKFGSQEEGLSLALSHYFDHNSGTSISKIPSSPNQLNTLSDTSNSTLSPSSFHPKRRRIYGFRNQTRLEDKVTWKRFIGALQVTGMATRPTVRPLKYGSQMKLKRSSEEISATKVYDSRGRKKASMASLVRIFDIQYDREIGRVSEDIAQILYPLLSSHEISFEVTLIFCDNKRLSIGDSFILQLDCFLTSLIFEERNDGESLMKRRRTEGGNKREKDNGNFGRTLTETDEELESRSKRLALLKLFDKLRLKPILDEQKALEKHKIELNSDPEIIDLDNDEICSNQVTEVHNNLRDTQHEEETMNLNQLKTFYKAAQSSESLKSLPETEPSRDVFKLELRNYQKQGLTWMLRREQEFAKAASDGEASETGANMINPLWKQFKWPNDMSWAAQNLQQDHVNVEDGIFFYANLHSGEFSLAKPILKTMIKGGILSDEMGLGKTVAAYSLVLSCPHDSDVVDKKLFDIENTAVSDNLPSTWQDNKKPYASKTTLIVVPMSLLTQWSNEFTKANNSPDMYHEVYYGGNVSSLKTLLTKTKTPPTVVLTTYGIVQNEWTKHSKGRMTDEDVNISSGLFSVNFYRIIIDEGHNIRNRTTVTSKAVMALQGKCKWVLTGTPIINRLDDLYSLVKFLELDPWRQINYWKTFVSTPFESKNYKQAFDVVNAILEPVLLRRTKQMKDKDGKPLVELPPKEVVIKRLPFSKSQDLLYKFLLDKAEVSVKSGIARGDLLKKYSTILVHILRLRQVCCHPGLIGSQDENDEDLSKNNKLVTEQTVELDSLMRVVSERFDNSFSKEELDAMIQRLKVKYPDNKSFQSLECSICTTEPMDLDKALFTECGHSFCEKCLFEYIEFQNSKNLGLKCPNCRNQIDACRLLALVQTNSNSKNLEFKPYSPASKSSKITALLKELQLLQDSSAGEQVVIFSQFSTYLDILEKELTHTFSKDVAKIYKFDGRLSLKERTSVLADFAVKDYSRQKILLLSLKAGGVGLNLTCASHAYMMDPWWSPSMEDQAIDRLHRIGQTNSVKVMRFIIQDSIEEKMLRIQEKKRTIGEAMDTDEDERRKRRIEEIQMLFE

HLTF [2] = biological target: T4, HLTF (Homo sapiens, UniProt Q14527 25-1009); assay: pull-down; 100 mM salt; FP: 20 mM Tris pH 7.5, 50 mM (dsDNA, KlHIRAN) or 70 mM (ssDNA) NaCl, 2 mM MgCl2, 1 nM DNA, room temp; EMSA: 20 mM Tris pH 7.5, 100 mM KCl, 0.5 mM DTT, 3% glycerol, 2 mM MgCl2, 250 ug/mL BSA, 4 C; pull-down: 20 mM Tris pH 7.5, 50 mM NaCl, 4 C; conditions: protein: recombinant; tags: His (pET28a); label: 5'-biotin
T4 sequence: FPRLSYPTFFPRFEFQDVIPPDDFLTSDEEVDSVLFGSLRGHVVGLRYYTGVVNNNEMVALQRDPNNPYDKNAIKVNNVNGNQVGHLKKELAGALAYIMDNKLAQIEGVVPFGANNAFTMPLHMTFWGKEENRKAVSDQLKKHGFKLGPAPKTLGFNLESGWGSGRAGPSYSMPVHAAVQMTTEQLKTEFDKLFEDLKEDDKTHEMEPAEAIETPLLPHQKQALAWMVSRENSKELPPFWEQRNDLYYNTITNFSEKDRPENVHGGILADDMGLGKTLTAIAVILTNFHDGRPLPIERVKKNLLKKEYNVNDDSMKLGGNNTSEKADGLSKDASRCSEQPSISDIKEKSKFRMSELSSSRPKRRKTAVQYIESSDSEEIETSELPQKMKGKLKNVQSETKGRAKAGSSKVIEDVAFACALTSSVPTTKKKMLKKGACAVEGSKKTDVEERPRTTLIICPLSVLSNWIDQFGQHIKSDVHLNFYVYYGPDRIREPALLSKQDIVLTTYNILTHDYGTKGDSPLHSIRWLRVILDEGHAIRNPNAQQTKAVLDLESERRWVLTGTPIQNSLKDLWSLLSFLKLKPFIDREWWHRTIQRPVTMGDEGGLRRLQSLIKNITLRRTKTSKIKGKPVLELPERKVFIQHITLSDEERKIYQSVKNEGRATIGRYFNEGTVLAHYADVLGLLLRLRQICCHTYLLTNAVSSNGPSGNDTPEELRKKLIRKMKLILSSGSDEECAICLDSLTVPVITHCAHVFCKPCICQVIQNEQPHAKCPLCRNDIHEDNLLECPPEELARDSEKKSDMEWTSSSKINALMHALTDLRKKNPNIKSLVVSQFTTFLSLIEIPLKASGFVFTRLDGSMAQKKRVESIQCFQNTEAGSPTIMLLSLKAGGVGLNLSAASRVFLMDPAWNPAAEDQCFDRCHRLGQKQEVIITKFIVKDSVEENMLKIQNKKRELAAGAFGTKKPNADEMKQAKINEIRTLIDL

KlRad5 [3] = biological target: T5, KlRad5 (Kluyveromyces lactis, UniProt Q6CJM4 163-1114); assay: pull-down; suppressed by SSB; all salt concentrations tested; FP: 20 mM Tris pH 7.5, 50 mM (dsDNA, KlHIRAN) or 70 mM (ssDNA) NaCl, 2 mM MgCl2, 1 nM DNA, room temp; EMSA: 20 mM Tris pH 7.5, 100 mM KCl, 0.5 mM DTT, 3% glycerol, 2 mM MgCl2, 250 ug/mL BSA, 4 C; pull-down: 20 mM Tris pH 7.5, 50 mM NaCl, 4 C; conditions: protein: recombinant; tags: none; label: 5'-biotin
T5 sequence: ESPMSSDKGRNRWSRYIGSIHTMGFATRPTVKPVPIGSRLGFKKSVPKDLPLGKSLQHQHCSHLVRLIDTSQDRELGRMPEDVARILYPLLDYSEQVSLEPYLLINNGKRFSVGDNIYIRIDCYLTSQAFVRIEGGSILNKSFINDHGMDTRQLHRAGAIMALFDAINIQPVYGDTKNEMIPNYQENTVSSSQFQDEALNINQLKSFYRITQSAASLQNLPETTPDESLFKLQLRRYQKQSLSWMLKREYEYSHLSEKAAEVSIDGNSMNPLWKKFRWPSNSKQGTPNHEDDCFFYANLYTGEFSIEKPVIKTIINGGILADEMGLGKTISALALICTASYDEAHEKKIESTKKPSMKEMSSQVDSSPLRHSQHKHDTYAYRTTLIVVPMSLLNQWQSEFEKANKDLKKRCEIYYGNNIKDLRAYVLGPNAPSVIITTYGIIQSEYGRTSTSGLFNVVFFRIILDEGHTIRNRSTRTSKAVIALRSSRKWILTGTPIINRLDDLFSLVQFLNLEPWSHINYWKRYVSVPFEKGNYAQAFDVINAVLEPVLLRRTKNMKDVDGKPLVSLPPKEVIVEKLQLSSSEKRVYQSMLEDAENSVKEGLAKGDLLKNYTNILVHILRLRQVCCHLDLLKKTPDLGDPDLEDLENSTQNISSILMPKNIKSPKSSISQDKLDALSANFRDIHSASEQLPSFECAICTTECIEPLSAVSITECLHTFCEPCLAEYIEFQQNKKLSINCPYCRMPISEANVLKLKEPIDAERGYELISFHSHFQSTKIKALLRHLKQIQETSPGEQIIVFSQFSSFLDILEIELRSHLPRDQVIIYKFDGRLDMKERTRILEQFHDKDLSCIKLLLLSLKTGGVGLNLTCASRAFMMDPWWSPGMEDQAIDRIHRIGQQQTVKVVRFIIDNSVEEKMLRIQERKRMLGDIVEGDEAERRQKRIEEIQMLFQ

HLTF [4] = biological target: T4, HLTF; assay: pull-down; lower salt; FP: 20 mM Tris pH 7.5, 50 mM (dsDNA, KlHIRAN) or 70 mM (ssDNA) NaCl, 2 mM MgCl2, 1 nM DNA, room temp; EMSA: 20 mM Tris pH 7.5, 100 mM KCl, 0.5 mM DTT, 3% glycerol, 2 mM MgCl2, 250 ug/mL BSA, 4 C; pull-down: 20 mM Tris pH 7.5, 50 mM NaCl, 4 C; conditions: protein: recombinant; tags: His (pET28a); label: 3'-biotin
ScRad5 [5] = biological target: T3, ScRad5; assay: pull-down; similar to 5'-biotin; FP: 20 mM Tris pH 7.5, 50 mM (dsDNA, KlHIRAN) or 70 mM (ssDNA) NaCl, 2 mM MgCl2, 1 nM DNA, room temp; EMSA: 20 mM Tris pH 7.5, 100 mM KCl, 0.5 mM DTT, 3% glycerol, 2 mM MgCl2, 250 ug/mL BSA, 4 C; pull-down: 20 mM Tris pH 7.5, 50 mM NaCl, 4 C; conditions: protein: recombinant; tags: N-terminal FLAG; label: 3'-biotin
KlRad5 [6] = biological target: T5, KlRad5; assay: pull-down; similar to 5'-biotin at all salt concentrations; FP: 20 mM Tris pH 7.5, 50 mM (dsDNA, KlHIRAN) or 70 mM (ssDNA) NaCl, 2 mM MgCl2, 1 nM DNA, room temp; EMSA: 20 mM Tris pH 7.5, 100 mM KCl, 0.5 mM DTT, 3% glycerol, 2 mM MgCl2, 250 ug/mL BSA, 4 C; pull-down: 20 mM Tris pH 7.5, 50 mM NaCl, 4 C; conditions: protein: recombinant; tags: none; label: 3'-biotin

B1: dT10, 3'-FAM (ssDNA)
DNA: TTTTTTTTTT
binding result (ScHIRAN): binds
binding result (KlHIRAN): binds

B2: dT25, 5'-biotin (ssDNA)
DNA: TTTTTTTTTTTTTTTTTTTTTTTTT
binding result (ScRad5 [1]): binds
binding result (HLTF [2]): binds
binding result (KlRad5 [3]): binds

B3: dT25, 3'-biotin (ssDNA)
DNA: TTTTTTTTTTTTTTTTTTTTTTTTT
binding result (HLTF [4]): binds
binding result (ScRad5 [5]): binds
binding result (KlRad5 [6]): binds
